# Changes are numbered by the printed parent chain.
# B1: hz1E11 CDR-L3 T94A (antibody, V domains shown)
# VH: EVQLVESGGGLVQPGGSLRLSCAASGFTFSSYTMSWVRQAPGKGLEWVAYISNGGGSTYYPDTVKGRFTISRDNAKNSLYLQMNSLRAEDTAVYYCARHLGGTASFDYWGQGTLVTVSS
# VL: DIQMTQSPSSLSASVGDRVTITCLASQTIGTWLAWYQQKPGKAPKLLIYVATSLADGVPSRFSGSGSGTDFTLTISSLQPEDFATYYCQQLYSAPWTFGQGTKVEIK
# notes: Alanine scanning variant, expressed in bacteria, periplasmic extract
# B2: hz1E11 CDR-L3 L91A (antibody, V domains shown)
# VH: B1 VH
# VL: B1 VL with L91A, A94T
# notes: as for B1
# B3: hz1E11 CDR-H3 T99A (antibody, name in Kabat numbering, V domains shown)
# VH: B1 VH with T103A
# VL: B1 VL with A94T
# notes: as for B1
# B4: hz1E11 CDR-L3 Q90A (antibody, V domains shown)
# VH: B1 VH
# VL: B1 VL with Q90A, A94T
# notes: as for B1
# B5: hz1E11 CDR-H3 S100aA (antibody, name in Kabat numbering, V domains shown)
# VH: B1 VH with S105A
# VL: B1 VL with A94T
# notes: as for B1
# B6: hz1E11 CDR-L3 S93A (antibody, V domains shown)
# VH: B1 VH
# VL: B1 VL with S93A, A94T
# notes: as for B1
# B7: hz1E11 CDR-H3 H95A (antibody, name in Kabat numbering, V domains shown)
# VH: B1 VH with H99A
# VL: B1 VL with A94T
# notes: as for B1
# B8: hz1E11 CDR-L3 Y92A (antibody, V domains shown)
# VH: B1 VH
# VL: B1 VL with Y92A, A94T
# notes: as for B1
# B9: hz1E11 CDR-H3 L96A (antibody, name in Kabat numbering, V domains shown)
# VH: B1 VH with L100A
# VL: B1 VL with A94T
# notes: as for B1
# B10: hz1E11 CDR-L3 Q89A (antibody, V domains shown)
# VH: B1 VH
# VL: B1 VL with Q89A, A94T
# notes: as for B1
# B11: hz1E11-3 (IgG) (antibody, V domains shown)
# VH: B1 VH
# VL: B1 VL with Q89D, L91M, A94T
# notes: heavy chain variable region the same as hz1E11
# B12: hz1E11-133 (IgG) (antibody, V domains shown)
# VH: B1 VH
# VL: B1 VL with L91N, Y92A, S93Y
# notes: as for B11
# B13: hz1E11-154 (IgG) (antibody, V domains shown)
# VH: B1 VH
# VL: B1 VL with L91T, Y92A, S93F, A94S
# notes: as for B11
# B14: M1-L-A1-3-1C3 (hz1E11-3), periplasmic extract (antibody, V domains shown)
# VH: B1 VH
# VL: B1 VL with Q89D, L91M, A94T
# notes: Library clone expressed in bacteria with IPTG, tested as periplasmic extract; LCDR3 DQMYSTPWT
# B15: M3-LH-A1-1-1H1 (antibody, name in Kabat numbering, V domains shown)
# VH: B1 VH with H99N, L100Y
# VL: B1 VL with L91N, Y92F, S93I
# notes: hz1E11 library clone, periplasmic extract
# B16: M1-LH-A3-3-1A6 (antibody, name in Kabat numbering, V domains shown)
# VH: B1 VH with H99N, L100Y
# VL: B1 VL with Y92V, S93R, A94T
# notes: as for B15
# B17: M3-LH-A3-3-2F1 (antibody, V domains shown)
# VH: B1 VH
# VL: B1 VL with L91N, Y92A, S93Y, A94N
# notes: as for B15
# B18: M3-LH-A1-2-2F4 (antibody, name in Kabat numbering, V domains shown)
# VH: B1 VH with H99N
# VL: B1 VL with Y92V, S93R, A94I
# notes: as for B15
# B19: M3-L-A1-3-1A12 (hz1E11-133), periplasmic extract (antibody, V domains shown)
# VH: B1 VH
# VL: B1 VL with L91N, Y92A, S93Y
# notes: Library clone expressed in bacteria with IPTG, tested as periplasmic extract; LCDR3 QQNAYAPWT
# B20: M3-L-A1-3-2C2 (antibody, V domains shown)
# VH: B1 VH
# VL: B1 VL with Y92G, S93F, A94I
# notes: as for B15
# B21: M3-L-A3-4-2E8 (antibody, V domains shown)
# VH: B1 VH
# VL: B1 VL with L91I, Y92A, S93Y, A94V
# notes: as for B15
# B22: M3-LH-A3-3-2A5 (antibody, name in Kabat numbering, V domains shown)
# VH: B1 VH with L100W
# VL: B1 VL with L91M, Y92F, A94T
# notes: as for B15
# B23: M3-L-A1-3-1F11 (hz1E11-154), periplasmic extract (antibody, V domains shown)
# VH: B1 VH
# VL: B1 VL with L91T, Y92A, S93F, A94S
# notes: Library clone expressed in bacteria with IPTG, tested as periplasmic extract; LCDR3 QQTAFSPWT
# Target: T1, HER2-ECD (ELISA antigen of Examples 13 and 14) (human, UniProt P04626 23-652)
# T1 construct: extracellular domain
# Experiment: ELISA, periplasmic extract on HER2-ECD
row,binding result,Binder
1,binds,B1
2,binds,B2
3,binds,B3
4,binds,B4
5,binds,B5
6,binds,B6
7,binds,B7
8,binds,B8
9,binds,B9
10,binds,B10

# Target: T2, HER2-ECD-His protein (human, UniProt P04626 23-652)
# T2 construct: extracellular domain; not shown: His tag
# Experiment: SPR, IgG captured by goat anti-human IgG on CM5, HER2-ECD-His analyte
# Protocol: The goat anti-human IgG (Invitrogen, #H10500) at a concentration of 2000 RU was immobilized to a CM5 sensor chip via ECD/NHS method. Then, the antibodies were allowed to bind at a rate of 50 μL/min for 5 minutes, and allowed the buffer to flow thereonto for 5 minutes for stabilization purpose. […] After analyzing each of the concentrations, they were recycled using 10 mM Glycine (pH 1.5) and performed the subsequent assays. The affinities of the antibodies were analyzed via BIAevaluation software.
Kd [nM],koff [s⁻¹],kon [M⁻¹ s⁻¹],fold decrease in Koff (kd) compared to hz1E11 [fold],fold improvement of affinity compared to hz1E11 [fold],Binder
5.2,0.0002,38000,,,B11
1.5,9.9e-05,64000,8.4,15,B12
1.1,9.9e-05,86000,8.4,20,B13

# Target: T2, HER2-ECD-His protein
# Experiment: SPR (Biacore 3000), HER2-ECD-His amine-coupled to CM5, periplasmic extract as analyte
# Protocol: In order to select clones with improved Koff among the selected clones, the clones were analyzed via Biacore 3000 (GE Healthcare). The HER2-ECD-His protein was immobilized to a CM5 sensor chip via an amine coupling method using ECD/NHS. […] The Koff value for each antibody was analyzed via BIAevaluation software.
row,Degree of reduction (Fold) of koff against hz1E11 [fold],Binder
1,7.4,B14
2,0.7,B15
3,5.8,B16
4,4.4,B17
5,3.2,B18
6,30.4,B19
7,2,B20
8,5.9,B21
9,3.6,B22
10,9.7,B23

# Reference: patent US20160053011A1 (ABCLON, published 2016)
